# Test results from US20250340658A1 (TWIST BIOSCIENCE, published 2025).
# Numbering of substitutions follows the chain as printed.
# B1: GLP1R-221-065 (antibody, V domains shown)
# VH: QVQLVESGGGVVQPGRSLRLSCAASGFTFNNYAMHWVRQAPGKGLEWVAVISYDRSNEYYADSVKGRFTISRDNSKNTLYLQMNSLRAEDTAVYYCAKHMSMQEGAVTGDGQAAKEFIAWLVKGRVRADLVGDAFDVWGQGTLVTVSS
# VL: QSVLTQPPSVSAAPGQKVTISCSGTTSNIANNFVSWYQQLPGTAPKLLIYDHNKRPSGIPDRFSGSKSGTSATLGITGLQTGDEADYYCGTWDTSLSAGAFGGGTKLTVL
# notes: IgG
# B2: GLP1R-221-034 (antibody, V domains shown)
# VH: B1 VH with T28P, N30S, A33G, Y53H, E58K, D110E, A114V
# VL: QSVLTQPPSVSAAPGQKVTISCSGSSSNIGNNPVSWYQQLPGTAPKLLIYENDNRPSGIPDRFSGSKSGTSATLGITGLQTGDEADYYCATWDRGLSTGVFGGGTKLTVL
# notes: IgG
# B3: GLP1R-221-009 (antibody, V domains shown)
# VH: B1 VH with T28I, N30S, A33G, Y53D, D54E, R55G, E58K, D110A
# VL: B1 VL with T25S, T26S, A30G, N32Q, F33Y, H52D, N53H, A98V, A100E
# notes: IgG
# B4: GLP1R-221-017 (antibody, V domains shown)
# VH: B1 VH with N30S, N31D, A33G, M34V, V50F, R55E, E58K, D110E, G111Y
# VL: B2 VL with N32T, P33Y, E51D, N52D, D53Y, N54K, R94A, G95T, S97N
# notes: IgG
# B5: GLP1R-221-084 (antibody, V domains shown)
# VH: B1 VH with T28A, N30S, A33G, Y53S, R55E, S56N, E58K, D110E, G111M
# VL: B2 VL with G30A, N31D, P33Y, D53N, N54R, A90G, R94V, G95S, T98V, V100M
# notes: IgG
# B6: GLP1R-221-033 (antibody, V domains shown)
# VH: B1 VH with T28S, N30S, Y53H, E58K, D110E, E116D
# VL: B2 VL with N32E, P33Y, E51D, D53N, N54K, P56V, R94T, G95S, S97N, T98V
# notes: IgG
# B7: GLP1R-221-066 (antibody, V domains shown)
# VH: B1 VH with D110E, A114I
# VL: B2 VL with P33Y, V34L, D53N, N54K, A90G, T91I, G95S, T98A, G99W
# notes: IgG
# B8: GLP1R-221-075 (antibody, V domains shown)
# VH: B1 VH with N30S, A33P, R55E, S56T, E58K, D110E, R125I
# VL: B2 VL with S26G, P33D, E51D, N54K, S57A, A90G, R94T, G95S, T98N, G99Y
# notes: IgG
# B9: GLP1R-221-092 (antibody, V domains shown)
# VH: B1 VH with T28I, A33G, V50F, D54G, R55G, E58K, D110E, A114V
# VL: B1 VL with H52N, S57P, A98V, A100M
# notes: IgG
# B10: GLP1R-221-076 (antibody, V domains shown)
# VH: B1 VH with A33P, R55E, S56T, E58K, D110E, R125I
# VL: QSVLTQPPSVSAAPGQKVTISCSGTSSNIGNNDVSWYQQLPGTAPKLLIYENNKRHSGIPDRFSGSKSGTSATLGITGLQTGDEADYYCLTWDHSLTAYVFGGGTKLTVL
# notes: IgG
# B11: GLP1R-222-056 (antibody, V domains shown)
# VH: B1 VH with T28P, N30S, N31S, E58K, D110Y, R125F
# VL: QSVLTQPPSVSAAPGQKVTISCSGSSSNIGSNYISWYQQLPGTAPKLLIYDNDKRPAGIPDRFSGSKSGTSATLGITGLQTGDEADYYCGTWDTSLSVGEFGGGTKLTVL
# notes: IgG
# B12: GLP1R-222-081 (antibody, V domains shown)
# VH: B1 VH with N30D, M34L, V50L, R55A, S56G, E58K, D110E, R125F
# VL: B11 VL with N32D, I34V, D53N, P56S, A57S, T94E, S97R, V98S, G99W, E100V
# notes: IgG
# B13: GLP1R-222-014 (antibody, V domains shown)
# VH: B1 VH with T28A, N30S, A33G, A49S, V50F, R55E, E58K, S85N, D110E, G111W
# VL: B10 VL with T25S, N32H, E51D, L90G, H94T, T97S, Y99G
# notes: IgG
# B14: GLP1R-222-073 (antibody, V domains shown)
# VH: B1 VH with N30R, N31D, A33G, V50F, S52R, R55E, S56I, E58K, D110E, K123G
# VL: B2 VL with S26G, P33D, E51D, D53N, N54K, P56A, A90G, L96P, S97N
# notes: IgG
# B15: GLP1R-222-052 (antibody, V domains shown)
# VH: B1 VH with A33P, R55E, E58K, D110G
# VL: B2 VL with N31K, N32R, P33S, E51D, D53N, N54K, P56A, A90V, G95S, T98A
# notes: IgG
# B16: GLP1R-222-082 (antibody, V domains shown)
# VH: B1 VH with N30S, N31A, A33S, V50L, R55A, S56T, E58K, D110E, G111F
# VL: B11 VL with N32K, I34V, D53N, A57S, T94I, L96P, V98A, G99W, E100V
# notes: IgG
# B17: GLP1R-222-023 (antibody, V domains shown)
# VH: B1 VH with T28S, N30S, N31D, A33G, V50F, R55A, S56N, E58K, D110E, G111W
# VL: B2 VL with P33D, D53T, N54K, A90G, R94A
# notes: IgG
# B18: GLP1R-222-012 (antibody, V domains shown)
# VH: B1 VH with A33G, Y53D, D54E, R55G, E58K, D110V
# VL: B11 VL with S31N, Y33D, I34V, N52D, A57S
# notes: IgG
# Biological target: T1, full length human GLP-1R with N-terminal FLAG tag and C-terminal GFP tag, on CHO cells (human, UniProt P43220 24-463)
# T1 construct: whole, on cells; the cell line itself is tied to UniProt P43220; also called FLAG-GLP-1R-GFP; CHO-GLP-1R
# Assay: flow cytometry titration, CHO GLP1R cells
# Protocol: (§1) GLP-1R IgG clones were tested in a binding assay coupled to flow cytometry analysis as follows: FLAG-GLP-1R-GFP expressing CHO cells (CHO-GLP-1R) and CHO-parent cells were incubated with 100 nM IgG for 1 h on ice, washed three times and incubated with Alexa 647 conjugated goat-anti-human antibody (1:200) (Jackson ImmunoResearch Laboratories, 109-605-044) for 30 min on ice, followed by three washes, centrifuging to pellet the cells between each washing step. All incubations and washes were in buffer containing PBS+1% BSA. […] Cells were analyzed by flow cytometry and hits (a hit is an IgG that specifically binds to CHO-GLP-1R) were identified by measuring the GFP signal against the Alexa 647 signal. Flow cytometry data of binding assays with 100 nM IgG are presented as dot plots. Analyses of binding assays with IgG titrations are presented as binding curves plotting IgG concentrations against MFI (mean fluorescence intensity).
Bmax,EC50 [nM],Binder
798000,–,B1
933000,–,B2
215000,12.5,B3
250000,27.6,B4
287000,4.09,B5
167000,9.04,B6
172000,57.4,B7
213000,–,B8
145000,13.3,B9
799000,–,B10

# Biological target: T1, full length human GLP-1R with …
# Assay: flow cytometry titration, CHO GLP1R cells
# Remark: another data set of the same source
# Protocol: as §1
Bmax,EC50 [nM],Binder
293000,77.4,B11
194000,22.5,B12
213000,34.3,B13
151000,13.1,B14
228000,17.4,B15
135000,11.5,B16
220000,18.4,B17
234000,23.1,B18

# Biological target: T1, full length human GLP-1R with …
# Assay: flow cytometry, GLP1R-expressing CHO cells
# Protocol: as §1
row,Median RL1-H of Expressing Singlets,Binder
1,273000,B1
2,223000,B2
3,221000,B3
4,241000,B4
5,221000,B5
6,240000,B6
7,223000,B7
8,242000,B8
9,232000,B9
10,236000,B10

# Biological target: T1, full length human GLP-1R with …
# Assay: flow cytometry, GLP1R-expressing CHO cells
# Remark: another data set of the same source
# Protocol: as §1
row,Median RL1-H of Expressing Singlets,Binder
1,218000,B11
2,221000,B12
3,237000,B13
4,225000,B14
5,378000,B15
6,224000,B16
7,241000,B17
8,225000,B18

# Biological target: T1, full length human GLP-1R with …
# Assay: flow cytometry, expressing vs parent CHO cells
# Protocol: as §1
row,MFI Ratio,Binder
1,915,B1
2,711,B2
3,1120,B3
4,1480,B4
5,1070,B5
6,1020,B6
7,928,B7
8,1170,B8
9,712,B9
10,747,B10

# Biological target: T1, full length human GLP-1R with …
# Assay: flow cytometry, expressing vs parent CHO cells
# Remark: another data set of the same source
# Protocol: as §1
row,MFI Ratio,Binder
1,946,B11
2,850,B12
3,794,B13
4,984,B14
5,13.7,B15
6,711,B16
7,778,B17
8,775,B18

# Biological target: T1, full length human GLP-1R with …
# Assay: flow cytometry, expressing vs parent CHO cells
# Remark: another data set of the same source
# Protocol: as §1
row,MFI Ratio,Binder
1,914,B1
2,711,B2
3,1120,B3
4,1480,B4
5,1070,B5
6,1020,B6
7,928,B7
8,1170,B8
9,712,B9
10,747,B10

# Biological target: T1, full length human GLP-1R with …
# Assay: flow cytometry, expressing vs parent CHO cells
# Remark: another data set of the same source
# Protocol: as §1
row,MFI Ratio,Binder
1,946,B11
2,850,B12
3,794,B13
4,984,B14
5,13.7,B15
6,711,B16
7,778,B17
8,775,B18

# Biological target: T1, full length human GLP-1R with …
# Assay: flow cytometry, expressing minus parent CHO cells
# Protocol: as §1
row,Subtraction,Binder
1,272000,B1
2,223000,B2
3,220000,B3
4,240000,B4
5,221000,B5
6,240000,B6
7,222000,B7
8,242000,B8
9,232000,B9
10,236000,B10

# Biological target: T1, full length human GLP-1R with …
# Assay: flow cytometry, expressing minus parent CHO cells
# Remark: another data set of the same source
# Protocol: as §1
row,Subtraction,Binder
1,217000,B11
2,221000,B12
3,237000,B13
4,225000,B14
5,350000,B15
6,224000,B16
7,241000,B17
8,225000,B18
